PMC8927147, “Global profiling of regulatory elements in the histone benzoylation pathway” (Nature Communications, 2022)
Ends that are not written are not given here. * marks the point of attachment. Bz = O=C(c1ccccc1)*

What was measured:
Test in all cases: crystal structure; protein (15 mg/ml) mixed with peptide at 1:5 molar ratio; sitting-drop vapor diffusion at 25 °C
Details in all cases: both partners purified
[1] = molecular target: T1, Sas5_(YEATS) (S. cerevisiae, UniProt Q99314 2-139)
T1 construct: also called YEATS domain of Sas5; source: E. coli Rosetta, purified (Ni-NTA, on-bead ULP1 digestion, SEC); not shown: 6*His-Sumo, N-terminal, cleaved
T1 sequence (looked up): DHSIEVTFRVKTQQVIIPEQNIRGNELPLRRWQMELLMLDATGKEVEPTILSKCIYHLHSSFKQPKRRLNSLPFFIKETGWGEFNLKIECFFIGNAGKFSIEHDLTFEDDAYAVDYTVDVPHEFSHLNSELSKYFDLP

[2] = molecular target: T2, Sth1BD (S. cerevisiae, UniProt P32597 1248-1359)
T2 construct: also called Bromodomain from Sth1; source: E. coli Rosetta, purified (Ni-NTA, on-bead ULP1 digestion, SEC); not shown: 6*His-Sumo, N-terminal, cleaved
T2 sequence (looked up): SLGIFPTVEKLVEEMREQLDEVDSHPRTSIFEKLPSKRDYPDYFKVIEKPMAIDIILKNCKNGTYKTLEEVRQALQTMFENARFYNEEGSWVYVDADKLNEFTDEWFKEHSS

[3] = molecular target: T3, Hst2_(8-294) (S. cerevisiae, UniProt P53686 8-294)
T3 construct: Construct of the crystal structures; source: E. coli Rosetta, purified (Ni-NTA, on-bead ULP1 digestion, SEC); not shown: 6*His-Sumo, N-terminal, cleaved
T3 sequence (P53686 8-294): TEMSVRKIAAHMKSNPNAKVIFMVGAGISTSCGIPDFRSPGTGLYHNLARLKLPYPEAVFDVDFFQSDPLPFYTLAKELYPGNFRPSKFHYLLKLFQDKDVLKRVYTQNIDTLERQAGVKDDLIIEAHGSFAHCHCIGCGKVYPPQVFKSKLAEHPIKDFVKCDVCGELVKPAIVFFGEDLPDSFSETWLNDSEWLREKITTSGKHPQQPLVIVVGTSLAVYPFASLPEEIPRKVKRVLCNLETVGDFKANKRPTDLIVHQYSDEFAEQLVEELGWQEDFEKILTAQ

[4] = molecular target: T4, Taf14_(YEATS) (S. cerevisiae, UniProt P35189 2-137)
T4 construct: Taf14, S. cerevisiae, YEATS domain, residues 2-137; also called Taf14_(2-137); YEATS domain of Taf14; source: E. coli Rosetta, purified (Ni-NTA, on-bead ULP1 digestion, SEC); not shown: 6*His-Sumo, N-terminal, cleaved
T4 sequence (looked up): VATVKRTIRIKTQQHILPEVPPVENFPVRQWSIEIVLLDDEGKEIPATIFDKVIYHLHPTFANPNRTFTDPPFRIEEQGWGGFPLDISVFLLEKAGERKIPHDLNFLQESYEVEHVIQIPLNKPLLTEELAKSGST

B1: H3_(18-37)K27bz (peptide)
peptide: KQLASKAARK(Bz)SAPSTGGVKY
notes: histone H3, residues K18 to K36; extra tyrosine residue (Y37) at the C-terminus designed for concentration determination by UV spectrometry; source: synthetic peptide
[1]
  binding result: binds

B2: H3K14bz(TARKSTGGKbzAPRKQLASY) (peptide)
peptide: TARKSTGGK(Bz)APRKQLASY
notes: histone H3, residues 6-22; C-terminal tyrosine (Y23) that is not in H3 at this position; also called H3K14bz peptide of the Sth1BD crystal; source: synthetic peptide
[2]
  binding result: binds

B3: H3_(5-14)K9bz (peptide)
peptide: QTARK(Bz)STGGK
notes: histone H3, residues 5-14; also called benzoylated H3 peptide; source: synthetic peptide
[3]
  binding result: binds

B4: H3_(5-13)K9bz (peptide)
peptide: Ac-QTARK(Bz)STGG
notes: histone H3, residues 5-13; Peptide crystallised with Taf14_(2-137); also called H3K9bz (Ac-QTARKbzSTGG); source: synthetic peptide
[4]
  binding result: binds
